# B1: galactose permease (GalP), H+/galactose symporter from E. coli, His6-tagged (natural protein, UniProt P0AEP1 1-464, looked up)
# chain: MPDAKKQGRSNKAMTFFVCFLAALAGLLFGLDIGVIAGALPFIADEFQITSHTQEWVVSSMMFGAAVGAVGSGWLSFKLGRKKSLMIGAILFVAGSLFSAAAPNVEVLILSRVLLGLAVGVASYTAPLYLSEIAPEKIRGSMISMYQLMITIGILGAYLSDTAFSYTGAWRWMLGVIIIPAILLLIGVFFLPDSPRWFAAKRRFVDAERVLLRLRDTSAEAKRELDEIRESLQVKQSGWALFKENSNFRRAVFLGVLLQVMQQFTGMNVIMYYAPKIFELAGYTNTTEQMWGTVIVGLTNVLATFIAIGLVDRWGRKPTLTLGFLVMAAGMGVLGTMMHIGIHSPSAQYFAIAMLLMFIVGFAMSAGPLIWVLCSEIQPLKGRDFGITCSTATNWIANMIVGATFLTMLNTLGNANTFWVYAALNVLFILLTLWLVPETKHVSLEHIERNLMKGRKLREIGAHD
# Target: the molecule itself
# Assay: single particle electron microscopy
protein,measurement,value
B1,stoichiometry N,3

# Reference: publication PMC2837359 (Journal of molecular biology, 2009)
